Measured values as given in patent US6881834.

Legend:
Sp3 = Sp3 (UniProt Q02447); test: cell_activity; details: luciferase induction in Drosophila cells
Sp1 = Sp1 (UniProt P08047); test: cell_activity; details: luciferase induction in Drosophila cells
Sp1, sequence (P08047 2-785): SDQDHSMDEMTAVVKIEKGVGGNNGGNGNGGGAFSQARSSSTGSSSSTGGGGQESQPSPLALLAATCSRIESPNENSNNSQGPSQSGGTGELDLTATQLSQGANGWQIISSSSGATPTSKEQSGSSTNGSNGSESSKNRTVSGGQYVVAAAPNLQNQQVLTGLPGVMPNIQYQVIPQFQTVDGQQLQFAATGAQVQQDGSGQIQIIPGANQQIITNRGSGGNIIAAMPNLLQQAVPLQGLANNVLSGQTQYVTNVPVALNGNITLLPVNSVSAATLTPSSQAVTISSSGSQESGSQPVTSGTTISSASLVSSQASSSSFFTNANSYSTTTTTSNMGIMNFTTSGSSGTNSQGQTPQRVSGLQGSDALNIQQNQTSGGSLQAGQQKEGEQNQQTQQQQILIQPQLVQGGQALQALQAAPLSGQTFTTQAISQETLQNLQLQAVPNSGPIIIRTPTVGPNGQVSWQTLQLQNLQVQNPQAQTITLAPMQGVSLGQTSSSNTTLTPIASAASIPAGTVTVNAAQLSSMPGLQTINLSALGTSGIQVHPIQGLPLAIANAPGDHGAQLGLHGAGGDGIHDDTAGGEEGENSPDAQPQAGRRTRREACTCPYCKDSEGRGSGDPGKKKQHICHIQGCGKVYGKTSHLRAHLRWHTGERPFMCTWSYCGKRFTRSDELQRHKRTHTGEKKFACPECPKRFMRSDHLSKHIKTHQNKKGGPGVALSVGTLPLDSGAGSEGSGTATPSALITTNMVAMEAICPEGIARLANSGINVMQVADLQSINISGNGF

Sp3, sequence (Q02447 whole entry): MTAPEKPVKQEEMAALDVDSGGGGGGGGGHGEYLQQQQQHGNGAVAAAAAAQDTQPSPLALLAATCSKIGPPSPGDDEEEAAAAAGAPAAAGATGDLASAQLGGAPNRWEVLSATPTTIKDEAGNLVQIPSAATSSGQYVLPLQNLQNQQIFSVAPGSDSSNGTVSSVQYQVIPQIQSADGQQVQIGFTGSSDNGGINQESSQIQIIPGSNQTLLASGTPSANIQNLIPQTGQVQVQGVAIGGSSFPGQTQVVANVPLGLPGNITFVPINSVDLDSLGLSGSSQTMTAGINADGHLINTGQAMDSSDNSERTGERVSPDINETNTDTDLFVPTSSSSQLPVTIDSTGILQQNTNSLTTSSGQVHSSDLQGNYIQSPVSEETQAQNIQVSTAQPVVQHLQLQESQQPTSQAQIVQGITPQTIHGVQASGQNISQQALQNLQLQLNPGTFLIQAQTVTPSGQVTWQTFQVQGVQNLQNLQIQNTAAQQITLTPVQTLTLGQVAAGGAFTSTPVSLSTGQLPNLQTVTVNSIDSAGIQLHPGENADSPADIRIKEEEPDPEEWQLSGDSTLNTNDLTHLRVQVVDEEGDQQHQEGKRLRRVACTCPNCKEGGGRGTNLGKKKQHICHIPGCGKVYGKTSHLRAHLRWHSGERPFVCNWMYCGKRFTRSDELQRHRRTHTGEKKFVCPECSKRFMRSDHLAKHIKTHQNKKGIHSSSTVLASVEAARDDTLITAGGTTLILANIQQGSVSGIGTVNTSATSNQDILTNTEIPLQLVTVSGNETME

CD11c promoter -196/+30 (CD11c-luc)
activity (Sp3): 18.9 fold
activity (Sp1): 19.5 fold
